Here are results for one molecule from patent publication US20060153850A1.

As a reminder, the IC50 is the concentration at which inhibition is half-maximal. A low value points to greater potency.

In experiment [1] the target is human M-CSF (macrophage colony stimulating factor) (human) (UniProt P09603). The experiment is described as follows: c-fms receptor binding inhibition assay: antibody varied, 125I-M-CSF binding to c-fms-bearing cells.
Experiment [2] has the same target. Description: cell-based or functional assay.

B1: monoclonal antibody 9.7.2 (antibody, human IgG4, kappa, V domains shown)
VH: QVQLVESGGGLVKPGGSLRLSCAASGFTFSDYYMSWIRQAPGKGLEWVSYISSSGSTIYYADSVKGRFTISRDNAKNSLYLQMNSLRAEDTAVYYCARRIGGMDVWGQGTTVTVSS
VL: DIQMTQSPSSLSASVGDRVTITCRASQSISGFLIWYQQRPGKAPKLLIYATSSLQSGVPLRFSGSESGTDFTLTISSLQPEDFATYYCQQSYSTPFTFGPGTKVDIKR
With B1, the IC50 in experiment [1] came out at 0.006 nM. In experiment [2], this molecule showed a Human Whole Blood Monocyte Activation Assay [IC50, M] of 1.98e-10 M and a M-CSF Mouse Monocytic Cell Proliferation Assay [IC50, M] of 7.37e-10 M.
